The values that follow are results of earlier work, collected in paper PMC5982148.

Common to all, as to assay: SPR
The target in series [1] is glyceraldehyde-3-phosphate dehydrogenase (Homo sapiens) (UniProt P04406).
Series [2] concerns the target CYP2C9 (Homo sapiens) (UniProt P11712).
Series [3] addresses CYP1B1 (Homo sapiens) (UniProt Q16678).
For series [4], the target named is SMAD4 (Homo sapiens) (UniProt Q13485).
For series [5], the target named is NADPH-adrenodoxin reductase (Homo sapiens) (UniProt P22570).
Series [6] addresses cytochrome b5 (Homo sapiens) (UniProt P00167).

Sequence of UniProt Q16678 (Q16678 whole entry): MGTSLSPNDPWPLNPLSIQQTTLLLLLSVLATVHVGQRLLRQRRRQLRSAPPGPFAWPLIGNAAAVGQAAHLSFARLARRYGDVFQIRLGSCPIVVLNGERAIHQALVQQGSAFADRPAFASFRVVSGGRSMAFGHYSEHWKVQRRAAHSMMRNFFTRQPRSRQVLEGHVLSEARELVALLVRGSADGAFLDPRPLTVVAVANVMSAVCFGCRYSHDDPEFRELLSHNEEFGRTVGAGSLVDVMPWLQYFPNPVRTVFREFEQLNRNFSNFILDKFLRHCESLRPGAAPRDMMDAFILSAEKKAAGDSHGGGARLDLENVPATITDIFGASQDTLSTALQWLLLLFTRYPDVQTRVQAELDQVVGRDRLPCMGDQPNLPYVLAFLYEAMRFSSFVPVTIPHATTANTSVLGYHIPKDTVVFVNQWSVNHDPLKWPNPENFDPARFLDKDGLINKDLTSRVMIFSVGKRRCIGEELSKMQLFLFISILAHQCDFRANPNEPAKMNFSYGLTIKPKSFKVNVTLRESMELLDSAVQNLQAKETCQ
Sequence of UniProt Q13485 (Q13485 whole entry): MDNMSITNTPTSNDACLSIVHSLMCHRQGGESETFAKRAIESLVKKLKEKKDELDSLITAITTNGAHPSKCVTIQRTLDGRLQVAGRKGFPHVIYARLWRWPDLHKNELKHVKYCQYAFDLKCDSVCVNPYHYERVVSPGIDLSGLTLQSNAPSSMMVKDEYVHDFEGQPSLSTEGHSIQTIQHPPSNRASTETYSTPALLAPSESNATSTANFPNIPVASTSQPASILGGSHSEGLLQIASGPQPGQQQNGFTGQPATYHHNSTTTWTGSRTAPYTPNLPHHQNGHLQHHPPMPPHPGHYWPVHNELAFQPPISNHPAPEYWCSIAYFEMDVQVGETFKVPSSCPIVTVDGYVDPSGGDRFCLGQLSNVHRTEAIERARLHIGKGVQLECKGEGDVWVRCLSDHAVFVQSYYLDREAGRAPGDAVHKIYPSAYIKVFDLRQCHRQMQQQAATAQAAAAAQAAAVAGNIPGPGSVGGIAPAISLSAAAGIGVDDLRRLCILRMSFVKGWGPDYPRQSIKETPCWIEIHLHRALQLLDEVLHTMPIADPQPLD
Sequence of UniProt P04406 (P04406 2-335): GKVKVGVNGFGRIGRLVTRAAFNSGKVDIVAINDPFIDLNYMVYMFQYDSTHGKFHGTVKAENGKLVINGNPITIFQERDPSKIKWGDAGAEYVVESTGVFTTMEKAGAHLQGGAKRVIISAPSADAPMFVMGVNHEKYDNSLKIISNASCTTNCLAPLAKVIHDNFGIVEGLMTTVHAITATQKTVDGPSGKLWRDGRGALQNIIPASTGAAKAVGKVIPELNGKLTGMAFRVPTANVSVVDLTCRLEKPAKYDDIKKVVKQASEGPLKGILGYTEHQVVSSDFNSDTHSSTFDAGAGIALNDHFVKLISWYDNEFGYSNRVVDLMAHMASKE
Sequence of UniProt P11712 (P11712 whole entry): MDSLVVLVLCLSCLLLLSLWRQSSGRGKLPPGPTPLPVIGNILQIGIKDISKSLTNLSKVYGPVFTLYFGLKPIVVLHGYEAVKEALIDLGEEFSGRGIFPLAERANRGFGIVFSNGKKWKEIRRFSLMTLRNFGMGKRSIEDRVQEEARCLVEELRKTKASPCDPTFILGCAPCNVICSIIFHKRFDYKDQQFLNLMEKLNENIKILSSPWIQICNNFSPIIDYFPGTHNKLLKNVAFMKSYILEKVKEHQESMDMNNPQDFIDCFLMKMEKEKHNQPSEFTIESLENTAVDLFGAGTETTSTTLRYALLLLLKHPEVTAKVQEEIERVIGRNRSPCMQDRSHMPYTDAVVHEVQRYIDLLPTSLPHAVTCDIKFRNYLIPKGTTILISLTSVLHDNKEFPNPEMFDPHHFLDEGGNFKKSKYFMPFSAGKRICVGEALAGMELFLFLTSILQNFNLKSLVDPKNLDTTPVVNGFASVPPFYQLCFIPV
Sequence of UniProt P22570 (P22570 33-491): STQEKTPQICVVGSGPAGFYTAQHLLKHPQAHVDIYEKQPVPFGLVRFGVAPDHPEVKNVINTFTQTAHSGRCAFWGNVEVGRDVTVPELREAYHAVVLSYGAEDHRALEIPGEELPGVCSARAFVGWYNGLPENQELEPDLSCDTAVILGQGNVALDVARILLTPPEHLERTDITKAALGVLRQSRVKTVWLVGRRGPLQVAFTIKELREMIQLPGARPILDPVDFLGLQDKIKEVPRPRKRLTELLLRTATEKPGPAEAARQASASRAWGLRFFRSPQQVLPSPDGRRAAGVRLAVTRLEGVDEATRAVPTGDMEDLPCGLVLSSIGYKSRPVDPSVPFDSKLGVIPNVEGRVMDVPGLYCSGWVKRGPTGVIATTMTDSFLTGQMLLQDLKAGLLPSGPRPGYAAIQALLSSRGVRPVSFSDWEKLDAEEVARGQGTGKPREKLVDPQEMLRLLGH

On to cytochrome b5 (from UniProt P00167), for which the Kd is 100 nM in series [1], 1100 nM in series [2] and 70 nM in series [3].

On to ferrochelatase (from UniProt P22830), for which the Kd in series [4] is 1600 nM; in series [5], 13000 nM; in series [6], 1500 nM.
